What was measured:
[1] = tested on: DTH responses to MBP or OVA; test: Delayed type hypersensitivity (DTH) testing, Example 2; format: in vivo, Lewis rats; conditions: fed antigen, then immunized with MBP/CFA plus OVA; FIG. 7
Experimental: Delayed Type Hypersensitivity (DTH) Testing. DTH was tested by injecting 50 μg of MBP or OVA in PBS, subcutaneously into the ear. MBP was injected in the left ear and OVA in the right ear in the same animal. Thickness, in units of 0.01 inch, was measured in a blinded fashion, before and 48 hours after challenge, using micrometer calipers (Mitutoyo, Utsunomia, Japan). Change in ear thickness before and after challenge was recorded for each animal, and results were expressed as the mean for each experimental group ± SEM; each group consisted of five animals.

[2] = tested on: Cells, cytokines and activation markers in rat brain; test: Immunohistology of cells, cytokines and activation markers in sections of rat brain; format: in vivo, Lewis rats; parameters: key to IL-4 / TGF-β / PGE: −: absence of labelling; +/−: <10 cells/section or trace labelling; +: few small foci; 2+: multiple foci; 3+: multiple large perivascular collections and diffuse submeningeal staining; conditions: brain sections at day 14 (peak of disease), n = 3/group
Experimental: The effect of oral administration of MBP in rats induced for EAE was analyzed in terms of the cells and factors present in the brains of fed and control rats. Lewis rats were fed MBP five times then immunized with MBP/CFA and their brains were examined immunohistologically at day 14 (peak of disease) and compared to brains from immunized control-fed animals harvested at the same time, and to brains of naive animals. Cryostat sections of cortex and cerebellum were fixed in paraformaldehyde-lysine-periodate for determination of leukocytes and activation antigens, or in acetone for the labelling of cytokines, and stained by a peroxidase-antiperoxidase method (Hancock, W. W., et al., J. Immunol. 138:164, 1987). Results of cytokine and endothelial labelling in 20 consecutive fields were judged as (−) absence of labelling, (+/−) <10 cells/section or trace labelling, (+) few small foci, (2+) multiple foci, and (3+) multiple large perivascular collections and diffuse submeningeal staining.

DTH responses to MBP = test: Delayed type hypersensitivity (DTH) testing, Example 1; format: in vivo, Lewis rats; conditions: orally tolerized animals injected 5 times with 50 μl control serum; 48 hours after MBP challenge
Experimental: Delayed Type Hypersensitivity (DTH) Testing. DTH was tested by injecting 25 μg of MBP in PBS subcutaneously in the ear. Thickness was measured before and 48 hours after challenge, by a blinded observer, using micrometer calipers (Mitutoyo, Japan). Change in ear thickness pre- and post-challenge was recorded for each animal and the result expressed as the mean for each experimental group ±SEM.
Delayed-type hypersensitivity (DTH) responses correlate with the clinical course of EAE and serve as a measure of in vivo cellular immunity to MBP (Brod, S. A. et al. Ann. Neurol. 29:615-622, 1991; Khoury, S. J. et al. Cell. Immunol. 131:302-310, 1990). DTH responses were tested in the same groups described in FIG. 4 by injecting 25 μg of MBP in PBS subcutaneously in the ear. Thickness was measured before and 48 hours after challenge. The change in ear thickness pre- and post-challenge was recorded for each animal and the results expressed as the mean for each experimental group ± SEM.

DTH responses = DTH responses in animals fed MBP or MBP peptides; format: in vivo, Lewis rats; conditions: FIG. 15
Text: Guinea pig MBP peptide 131-150 was ineffective in this case. Peptides were also fed with STI which prevents their breakdown by gastric juices and enhances their biological effect. DTH responses to whole MBP were suppressed by feeding MBP or any one of the MBP-peptides 21-40, or 71-90.

MBP line = test: Transwell culture suppression of MBP T cell line; format: cell-based, Lewis rats
Text: Transwell Cultures. A dual chamber transwell culture system (Costar, Cambridge, Mass.), which is 24.5 mm in diameter and consists of two compartments separated by a semi-permeable polycarbonate membrane, with a pore size of 0.4 μm, was used. The two chambers are 1 mm apart, allowing cells to be coin-cubated in close proximity without direct cell-to-cell contact. To measure in vitro suppression of proliferative responses in transwell cultures, 5×10^4 MBP- or OVA-specific line cells, raised and maintained as previously described (Ben-Nun, A. et al., Eur. J. Immunol. 11:195, 1981), were cultured with 10^6 irradiated (2,500 rad) thymocytes, in 600 μl of proliferation media in the lower well. Spleen cells from orally tolerized rats or controls (fed BSA) were added to the upper well (5×10^5 cells in 200 μl). Spleen cells were removed 7-14 days after the last feeding, and a single cell suspension was prepared by pressing the spleens through a stainless steel mesh. MBP and OVA (50 μg/ml) were added in a volume of 20 μl. […] In some experiments, modulator cells were added in the lower well together with responder cells, and in these instances modulator cells were irradiated (1,250 rad) immediately before being placed in culture. Proliferation media consisted of RPMI 1640 (Gibco Laboratories, Grand Island, N.Y.) supplemented with […] 2-mercaptoethanol, 1% sodium pyruvate, 1% penicillin and streptomycin, 1% glutamine, 1% HEPES buffer, 1% nonessential amino acids, and 1% autologous serum. Each transwell was performed in quadruplicate. The transwells were incubated at 37° C. in a humidified 6% CO2 and 94% air atmosphere for 72 hours. After 54 hours of culture, each lower well was pulsed with 4 μCi of [^3H]thymidine and at 72 hours split and reseeded to three wells in a round-bottomed 96-well plate (Costar) for harvesting onto fiberglass filters and counting using standard liquid scintillation techniques. Percent suppression =100×(1−Δ A cpm responders cultured with modulators/Δ cpm of responders).

EAE [3] = test: EAE induced by guinea pig MBP 71-90, feeding of MBP peptides; format: in vivo, Lewis rats; conditions: fed; FIG. 14
Experimental: The effects of feeding various peptides to Lewis rats induced for EAE by guinea pig MBP residue nos. 71-90 (the major immunodominant epitope of guinea pig MBP as shown in Example 3 above) were also studied.
EAE was induced by immunizing with 0.25 mg of guinea pig MBP amino acid residue nos 71-90 in Complete Freund's Adjuvant and the effect of feeding various guinea pig MBP peptides on EAE was examined.

EAE [4] = test: Adoptive transfer of disease suppression; format: in vivo, Lewis rats; conditions: naive recipients immunized with MBP/CFA and given OVA subcutaneously; FIG. 9
Experimental: Adoptive Transfer Of Disease Suppression. In order to monitor the adoptive transfer of disease suppression occurring during Bystander Suppression donor rats were fed either 1 mg MBP, OVA, or KLH, five times at 2 day intervals and killed 7-14 days after the final feeding. Spleen cells were harvested, and incubated in vitro with the homologous antigen (50 μg/ml) in proliferation medium, for 72 hours. Cells were injected intraperitoneally: 10^8 cells for whole spleen populations or 5-6×10^7 cells for CD8− or CD4-depleted populations. Recipient animals were irradiated (250 rad) before adoptive transfer, immunized with MBP/CFA 6 hours after adoptive transfer, and challenged 8 hours later with 50 μg OVA.

[5] = irradiated modulators in lower well with MBP line + MBP 50 μg/ml
[6] = modulators in upper well, MBP line + MBP in lower well

B1: MBP: Guinea pig myelin basic protein purified from brain tissue (protein, UniProt P25188 1-167, looked up)
Myelin basic protein: ASQKRPSQRHGSKYLATASTMDHARHGFLPRHRDTGILDSIGRFFGSDRAAPKRGSGKDSHHAARTTHYGSLPQKSQRSQDENPVVHFFKNIVTPRTPPPSQGKGRGLSLSRFSWGAEGQKPGFGYGGRADYKSKGFKGAHDAQGTLSKIFKLGGRDSRSGSPMARR
DTH responses to MBP [1]: Suppressed DTH responses to MBP | IL-2R(p55), PCNA [2]: +/− (<10 cells/section or trace labelling) | IL-4 [2]: − | PGE [2]: − | TGF-β [2]: 2+ | DTH response (change in ear thickness) (DTH responses to MBP): 0.5±0.3 | DTH responses to guinea pig MBP peptide 71-90 (DTH responses): suppressed | DTH responses to whole MBP (DTH responses): suppressed | Percent Suppression (MBP line; [5]): 51% | Δ cpm (MBP line; [5]): 18,412 ± 1,867 cpm | Percent Suppression (MBP line; [6]): 59% | Δ cpm (MBP line; [6]): 15,620 ± 2,294 cpm | down-regulation of EAE induced by guinea pig MBP 71-90 (EAE [3]): equally effective in down-regulating EAE | adoptive transfer of protection by spleen cells from fed animals (EAE [4]): adoptively transferred protection

Source: patent US6645504B1, “Bystander suppression of type I diabetes by oral administration of glucagon” (AutoImmune Inc., priority 1987, dated 2003)
